Laboratory results as given in paper PMC9616786 (Cellular and Molecular Life Sciences, 2022).
Where no end group is shown, it is not given here. The star is where a group is joined. Biotin = O=C1N[C@H]2[C@H](CS[C@H]2CCCCC(=O)*)N1

Biological target: T1, Calmodulin from bovine brain (bovine, UniProt P62157 1-149)
T1 construct: calmodulin, bovine, purified from brain; also called purified bovine brain CaM; CaM; source: bought: Sigma-Aldrich Cat#208694, purified from bovine brain
Experiment: SPR; Biacore 3000, 25 °C; biotinylated peptides captured on a streptavidin chip; CaM injected at 13.2 nM to 9.6 µM; HBSP (10 mM HEPES pH 7.4, 150 mM NaCl, 0.005% P20) with 1 mM CaCl2; equilibrium analysis, apparent KD
Conditions: both partners purified

binding result: binds
B1: Peptide INF2 2-19 L14L18A, biotinylated (for surface plasmon resonance) (peptide)
peptide: K(Biotin)GGSVKEGAQRKWAAAKEKAG
notes: added N-terminal K (biotinylated) and two G residues as spacer; INF2, human, amino acids 2-19 with L14A and L18A; also called double L14L18A 2-19 peptide mutant; source: synthetic peptide (Proteomics Facility, CNB, CSIC), HPLC purified
